Assay results as given in publication PMC8649222.

Experiments:
IL-11:sIL-11R complex = IL-11:sIL-11R complex (UniProt P20809)
IL-6:sIL-6R complex = IL-6:sIL-6R complex (UniProt P05231)
[1] = target: Hyper-IL-6 (Homo sapiens) (UniProt P05231); conditions: cited from earlier work
Hyper-IL-6 (Homo sapiens), sequence (P05231 30-212, chain 1 of 2): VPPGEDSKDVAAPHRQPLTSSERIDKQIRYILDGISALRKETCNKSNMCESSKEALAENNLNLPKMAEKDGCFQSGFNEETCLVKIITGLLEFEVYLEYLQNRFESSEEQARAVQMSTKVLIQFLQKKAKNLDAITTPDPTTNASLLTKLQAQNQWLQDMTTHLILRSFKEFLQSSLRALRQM
Hyper-IL-6 (Homo sapiens), sequence (partner, as listed by the source, chain 2 of 2): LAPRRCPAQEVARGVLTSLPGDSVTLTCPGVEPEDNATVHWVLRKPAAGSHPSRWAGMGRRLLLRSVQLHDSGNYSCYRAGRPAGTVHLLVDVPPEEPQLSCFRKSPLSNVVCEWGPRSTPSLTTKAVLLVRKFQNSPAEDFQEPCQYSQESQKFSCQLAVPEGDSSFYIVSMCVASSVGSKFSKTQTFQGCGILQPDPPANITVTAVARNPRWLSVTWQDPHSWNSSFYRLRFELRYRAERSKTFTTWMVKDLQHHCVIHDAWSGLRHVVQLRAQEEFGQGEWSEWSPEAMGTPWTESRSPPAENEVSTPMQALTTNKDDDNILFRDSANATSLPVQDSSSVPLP

IL-6:sIL-6R complex, sequence (P05231 30-212, chain 1 of 2): as the sequence (P05231 30-212, chain 1 of 2) above
IL-6:sIL-6R complex, sequence (P08887 20-365, chain 2 of 2, further chain): as the sequence (partner, as listed by the source, chain 2 of 2) above
sgp130Fc, sequence (P40189 23-619): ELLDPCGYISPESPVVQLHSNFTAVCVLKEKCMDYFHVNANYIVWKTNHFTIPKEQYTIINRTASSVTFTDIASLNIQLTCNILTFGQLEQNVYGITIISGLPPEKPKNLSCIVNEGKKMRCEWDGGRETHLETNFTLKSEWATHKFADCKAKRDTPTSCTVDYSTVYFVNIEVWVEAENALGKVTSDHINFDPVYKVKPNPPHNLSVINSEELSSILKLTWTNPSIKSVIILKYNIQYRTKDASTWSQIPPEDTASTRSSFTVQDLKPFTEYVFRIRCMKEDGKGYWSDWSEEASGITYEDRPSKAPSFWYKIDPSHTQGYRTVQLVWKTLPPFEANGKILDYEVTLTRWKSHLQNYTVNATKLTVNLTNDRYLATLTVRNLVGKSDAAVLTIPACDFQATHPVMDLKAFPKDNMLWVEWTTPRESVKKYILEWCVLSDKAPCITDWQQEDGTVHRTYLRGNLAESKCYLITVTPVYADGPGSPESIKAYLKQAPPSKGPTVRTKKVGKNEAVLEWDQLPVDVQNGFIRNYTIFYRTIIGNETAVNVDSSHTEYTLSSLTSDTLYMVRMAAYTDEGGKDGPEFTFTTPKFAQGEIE
IL-11:sIL-11R complex, sequence (P20809 22-199, chain 1 of 2): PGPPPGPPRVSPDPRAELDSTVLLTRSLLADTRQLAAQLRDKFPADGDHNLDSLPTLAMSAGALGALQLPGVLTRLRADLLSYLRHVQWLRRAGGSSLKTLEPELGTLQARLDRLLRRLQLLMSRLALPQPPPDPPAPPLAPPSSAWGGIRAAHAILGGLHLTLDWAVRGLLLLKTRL
IL-11:sIL-11R complex, sequence (Q14626 24-370, chain 2 of 2, further chain): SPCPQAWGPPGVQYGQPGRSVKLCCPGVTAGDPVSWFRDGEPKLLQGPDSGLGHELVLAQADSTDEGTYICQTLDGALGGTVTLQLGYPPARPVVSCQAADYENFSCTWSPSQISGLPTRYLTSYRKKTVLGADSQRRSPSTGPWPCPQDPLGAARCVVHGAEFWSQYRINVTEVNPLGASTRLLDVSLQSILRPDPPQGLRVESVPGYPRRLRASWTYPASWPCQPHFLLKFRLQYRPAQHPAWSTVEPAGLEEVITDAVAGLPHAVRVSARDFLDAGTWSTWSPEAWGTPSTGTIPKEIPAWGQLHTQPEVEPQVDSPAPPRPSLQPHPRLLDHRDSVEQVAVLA
sgp130^R281QFc, sequence (P40189 23-619 R281Q): as the sequence (P40189 23-619) above, with R259Q counted along it

sgp130Fc (from UniProt P40189 23-619) (Fc fusion)
IC50 of inhibition of sIL-11R/IL-11 (10/100 ng/ml) induced proliferation of Ba/F3-gp130 cells (blocks the complex from membrane-bound gp130) (IL-11:sIL-11R complex): 0.29 nM
IC50 of inhibition of IL-6/sIL-6R (50/100 ng/ml) induced proliferation of Ba/F3-gp130 cells (blocks the complex from membrane-bound gp130) (IL-6:sIL-6R complex): 0.45 nM

sgp130FlyFc ECD (from UniProt P40189)
Kd [1]: 0.122 nM

sgp130^R281QFc (from UniProt P40189 23-619) (Fc fusion)
IC50 of inhibition of sIL-6R/IL-6 (50/100 ng/ml) induced proliferation of Ba/F3-gp130 cells (blocks the complex from membrane-bound gp130) (IL-6:sIL-6R complex): 0.78 nM
